Measurements as given in US20090252683A1 (Amgen, published 2009).
Blank lines part the entries; values can stand above or below the binder they belong to.

Target: T1, human EGFR on A431 cells (human, UniProt P00533 25-1210)
T1 construct: whole, on cells
Assay: FACS, A431 cells, 1 µg/ml purified protein, anti-His detection
Method: In order to test the functionality of the cross-species specific bispecific antibody constructs with regard to binding capability to human and cynomolgus EGFR and CD3, respectively, a FACS analysis was performed. For this purpose the EGFR positive epidermoid carcinoma A431 cells (ATCC, CRL-1555) and CD3 positive human T cell leukemia cell line HPB-ALL (DSMZ, Braunschweig, ACC483) were used to check the binding to human antigens. The binding reactivity to cynomolgus antigens was tested by using the generated cynomolgus EGFR transfectants described in Example 20 and cynomolgus PBMCs which were obtained by Ficoll density gradient centrifugation. 200,000 cells of the respective cell population were incubated for 30 min on ice with 50 μl of the purified protein of the cross-species specific bispecific antibody constructs (1 μg/ml). The cells were washed twice in PBS and binding of the construct was detected with an unlabeled murine Penta His antibody (diluted 1:20 in 50 μl PBS with 2% FCS; Qiagen; Order No. 34660). After washing, bound anti His antibodies were detected with an Fc gamma-specific antibody (Dianova) conjugated to phycoerythrin, diluted 1:100 in 50 μl PBS with 2% FCS. Fresh culture medium was used as a negative control.
Cells were analyzed by flow cytometry on a FACS-Calibur apparatus (Becton Dickinson, Heidelberg). FACS staining and measuring of the fluorescence intensity were performed as described in Current Protocols in Immunology (Coligan, Kruisbeek, Margulies, Shevach and Strober, Wiley-Interscience, 2002).

binding result: binds
B1: EGFR HL × SEQ ID NO. 194 (bispecific antibody)
chain: QVQLQQSGPDLVKPGASVKMSCKASGHTFTDCVIIWVKQRAGQGLEWIGQIYPGTGRSYYNEIFKGKATLTADKSSNTVHIQLSSLTSEDSAVYFCALSTLIHGTWFSYWGQGTLVTVSSGGGGSGGGGSGGGGSDIVLTQSPASLPVSLGQRATISCRASQSVSSSTYSYIHWYQQKPGQPPKLLITYASNLESGVPARFSGSGSGTDFTLDIHPVEEDDSSTYYCQHSWEIPFTFGSGTKLEIKSGGGGSQTVVTQEPSLTVSPGGTVTLTCRSSTGAVTTSNYANWVQQKPGQAPRGLIGGTNKRAPGTPARFSGSLLGGKAALTLSGVQPEDEAEYYCALWYSNLWVFGGGTKLTVLGGGGSGGGGSGGGGSEVQLVESGGGLVQPGGSLKLSCAASGFTFNTYAMNWVRQAPGKGLEWVARIRSKYNNYATYYADSVKDRFTISRDDSKNTAYLQMNNLKTEDTAVYYCVRHGNFGNSYVSWFAYWGQGTLVTVSSHHHHHH
notes: the appendix prints the entry with HHHHHH and then *VD at its end

binding result: binds
B2: EGFR HL × SEQ ID NO. 170 (bispecific antibody)
chain: QVQLQQSGPDLVKPGASVKMSCKASGHTFTDCVIIWVKQRAGQGLEWIGQIYPGTGRSYYNEIFKGKATLTADKSSNTVHIQLSSLTSEDSAVYFCALSTLIHGTWFSYWGQGTLVTVSSGGGGSGGGGSGGGGSDIVLTQSPASLPVSLGQRATISCRASQSVSSSTYSYIHWYQQKPGQPPKLLITYASNLESGVPARFSGSGSGTDFTLDIHPVEEDDSSTYYCQHSWEIPFTFGSGTKLEIKSGGGGSEVQLVESGGGLVQPGGSLKLSCAASGFTFNTYAMNWVRQAPGKGLEWVARIRSKYNNYATYYADSVKDRFTISRDDSKNTAYLQMNNLKTEDTAVYYCVRHGNFGNSYVSWFAYWGQGTLVTVSSGGGGSGGGGSGGGGSQTVVTQEPSLTVSPGGTVTLTCRSSTGAVTTSNYANWVQQKPGQAPRGLIGGTNKRAPGTPARFSGSLLGGKAALTLSGVQPEDEAEYYCALWYSNLWVFGGGTKLTVLHHHHHH
notes: the appendix prints the entry with HHHHHH and then *VD (stop and vector residues) at its end

binding result: binds
B3: EGFR LH × SEQ ID NO. 170 (bispecific antibody)
chain: DIVLTQSPASLPVSLGQRATISCRASQSVSSSTYSYIHWYQQKPGQPPKLLITYASNLESGVPARFSGSGSGTDFTLDIHPVEEDDSSTYYCQHSWEIPFTFGSGTKLEIKGGGGSGGGGSGGGGSQVQLQQSGPDLVKPGASVKMSCKASGHTFTDCVIIWVKQRAGQGLEWIGQIYPGTGRSYYNEIFKGKATLTADKSSNTVHIQLSSLTSEDSAVYFCALSTLIHGTWFSYWGQGTLVTVSSGGGGSEVQLVESGGGLVQPGGSLKLSCAASGFTFNTYAMNWVRQAPGKGLEWVARIRSKYNNYATYYADSVKDRFTISRDDSKNTAYLQMNNLKTEDTAVYYCVRHGNFGNSYVSWFAYWGQGTLVTVSSGGGGSGGGGSGGGGSQTVVTQEPSLTVSPGGTVTLTCRSSTGAVTTSNYANWVQQKPGQAPRGLIGGTNKRAPGTPARFSGSLLGGKAALTLSGVQPEDEAEYYCALWYSNLWVFGGGTKLTVLHHHHHH
notes: as for B1

binding result: binds
B4: EGFR LH × SEQ ID NO. 194 (bispecific antibody)
chain: DIVLTQSPASLPVSLGQRATISCRASQSVSSSTYSYIHWYQQKPGQPPKLLITYASNLESGVPARFSGSGSGTDFTLDIHPVEEDDSSTYYCQHSWEIPFTFGSGTKLEIKGGGGSGGGGSGGGGSQVQLQQSGPDLVKPGASVKMSCKASGHTFTDCVIIWVKQRAGQGLEWIGQIYPGTGRSYYNEIFKGKATLTADKSSNTVHIQLSSLTSEDSAVYFCALSTLIHGTWFSYWGQGTLVTVSSSGGGGSQTVVTQEPSLTVSPGGTVTLTCRSSTGAVTTSNYANWVQQKPGQAPRGLIGGTNKRAPGTPARFSGSLLGGKAALTLSGVQPEDEAEYYCALWYSNLWVFGGGTKLTVLGGGGSGGGGSGGGGSEVQLVESGGGLVQPGGSLKLSCAASGFTFNTYAMNWVRQAPGKGLEWVARIRSKYNNYATYYADSVKDRFTISRDDSKNTAYLQMNNLKTEDTAVYYCVRHGNFGNSYVSWFAYWGQGTLVTVSSHHHHHH
notes: as for B1
